Test results: the nanobody polyreactivity screen of Harvey et al. (2022)

Experiment: yeast display, Sf9 membrane polyspecificity reagent, FACS + sequencing; frameworks hold sequencing errors
In short: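 A nanobody's polyreactivity label depends on the gate it was sorted from. Yeast display cells were stained with 10% biotinylated, detergent-solubilized Sf9 membrane reagent for 1 hour at 4 °C, enriched on streptavidin microbeads and sorted by FACS. The low and high (top ~1%) gates were set on anti-HA fluorescence for expression and streptavidin fluorescence for reagent binding.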

Sequence	polyreactivity (PSR sort gate)
QVQLVESGGGLGQAGGSLRLSCAASGSIFYYYAMGWYRQAPGKERELVAGINSGDSTYYADSVKGRFTISRDNAKNTVYLQMNRLKPEDTAVYYCAASADGWYEYWGQGTQVTVSS	low polyreactivity
QVQLVESGGGLVQAGGSLRLSCAASGSIFRSYAMGWYRQAPGKERELVASITRSSGSTYYADSVKGRFTISRDNAKNTVYLQMNSLKPEDTAVYYCNAVVSKSRRFRVDYWGQGTQVTVSS	high polyreactivity
QVQLVESGGGLVQAGGSLRLSCAASGITFWPYAMGWYRQAPGKERELVAAISFIDGSTSYADSVKGRFTISRDNAKNTVYLQMNSLKPEDTAVYYCAAVIPGPSIWLYYYWGQGTQVTVSS	low polyreactivity
QVQLVESGGGLVQAGGILRLSCAASGRTFYYYAMGWYRHERGKERELVAAISISGGTNYADSVKGRFTISRDNAKNTVYLQMNSLKPEDTAVYYCAAYLRHESPSIWDRYDYWGQGTQVTVSS	low polyreactivity
QVQLVESGGGLVQAGGSLRLSCAASGFTFNPYAMGWYRQAPGKERELVAAITSGGSTNYADSVKGRFTISRDNAKNTVYLQMNSLKPEDTAVYYCAADSRGYGDDSWGQGTKVTVSS	low polyreactivity
QVQLVESGGGLVQAGGSLRLSCAAYGFTFAAYSMGWYRQAPGKEREFVAAITSRDGTTYYADSVKGRFTISGYNAKNTVYLQMNSLKPEDTAVFYCAKDHFNWGVSEVDSWRQGTQVTVSS	low polyreactivity
QVQLVESGGGVVQAGGSLRLSCDASGSTFDTYAMGWYRQAPGKERELVAGNTRRGGRTYYADSVKGRFTISRDNAKNTVYVQMNSLKPEDSAVYYCNALPQRPVGKRDHWGQGTQVTVSS	high polyreactivity
QVQLVESGGGLVQAGGSLRLICAASGSTFYTYAMGWYRQAPGKEREFVAAIRWRGGSTYYADSVKGRFTISRDNSKNTVFLQMNSLKPEDTAVYYCAAVSPGTVTNGKSRDYWGQGTQVTVSS	high polyreactivity
QVQLVESGGGLVQAGGSLRLSCAASGIIFSFYAMGWYRQAPGKERELVAAISRSGGSTYYADSVKGRFTISRDNEKNSVYLQMNSLKPEDTAVYYCNADNGASYYYRRYDSLGQGTQVTVSS	high polyreactivity
QVQLVESGGGLVQAGGSLRLSCAASGNIFYSYAMGWYRQAPGKERELVAAISSSGGRTYYADSVKGRFTISRDNAKNTVYLQMNSLKPEDTAVYYCNAYVQVLRYVFGRPTVYPYDYWGQGTQVTVSS	high polyreactivity
QVQLVESGGGLVQAGGSLRLSCAASGRTFRYNAMGWYRQAPGKERELVASISWRGGSTYYADSVKGRFTISRDNAKNTVYLPMNSLKPEDTAVYYCAADAAHSEYDDWGQGTQVTVSS	high polyreactivity
QVQLVESGGGLVQAGGSLRLSCAASGYTFRGYAMGWYRQAPGKEREFVAAINWSDGSTYYADSVKGRFTISRDNAKNTVYLQMNSLKPEDTAVYYCNADQYYRVPDNYWGQGTLVTVSS	low polyreactivity
QVQHVESGGGLVQAGGSLRLSCAASGSIFWYYAKGWYRQAPGKERELVATITSGGSTSYADSVKGRFTISRDNAKNPVYLQMNSLKPEDTAVYYCAAARLFTTYDWGQGTQVTVSS	low polyreactivity
QVQLVESGGGLVQAGGSLRLSCAASGRIFSRYAMGWYRQAPGTERELVAAINKSGGSTYYADSVKGRFTISRDNAKNTVYLQMNSLKPEDTAVYYCNAVYYWYKGDYWGQGTQVTVSS	high polyreactivity
QVQLEESGGGLVQAGGSLRLSCAASGRIHVYTMGWSRQAPGKERELVATITWSGTSTNYADSVKGRFTISRDNAKNTVYFQMNSLKPEDTAVYYCAADISGVLSVSNVRGFDYWGQGTQVTVSS	low polyreactivity
QVQLVESGGRLVQAGGSLRLSCAASGSILTSYPMGWNRQAPGKERELVAAISTTGGSTYYADSVKGRFTISRDNAKNTVYLQMNSLKPEDTAVYYCAKASGSGGEMDYWGQGTQVTVSS	low polyreactivity

Sequence	polyreactivity (PSR sort gate)
QVQLVESGGGLVQAGGSLRLSCAASGSTFGENAMGWYRQAPGKERELVAAISSGGSTNYADSVNGRFTISRDNAQNTVYLQMNSLQPEDTAVYYCNRYPVRDTGGYWGQGTQVTVSS	low polyreactivity
QVQLVESGGGLVQAGGSLRLSCAASGRTSNFNAMGWYRQAPGKERELVAAINSDGSTYYADSVKGRFTISRDNAKNTVYLQMNSLKPEDTAVYYCAAVSLFRDSQFDYWGQGTQVTVSS	low polyreactivity
QVQLVESGGGLVQAGGSLRLSCADSGRIFYRYAMGWYRQAPGKERELVAAITNSGGRTYYADSVKGRFTISRDNAKNTVYLQMNSVKPEDSAVYYCNAVKTSEYDYWGQGTQVTVSS	high polyreactivity
QFQLVESGGGLVQAGGSLRLSCAASAGNFNRYAMGWYRQAPGKEMELVAAISSSGGPTYYADSVKGRFTISRDNAKNTVYLQMNSLKPEDSAVYYCNARYPRLHRTYNYWGQGTQVTVSS	high polyreactivity
QVQLVESGGGLVQAGGSLRFSCAASGRIFGDYAMGWYRLAPGKERELVAAISWSDGSTYYADSVKGRFTISRDNAKNTVYLQMNSLKPEDTAVYYCAASYWDTEPGYREYDYWGQGTQVTVSS	low polyreactivity
QVQLVESGGGLVQAGGSLRLICAASGNIFVYYALGWYRQAPGKERELVAAITSDVSTYYADSVKGRFTISRDNAKNTVYLQLNSLKPEVTAVYYCATTGYGSYVIYWGQGTQVTVSS	low polyreactivity
QVQLVESGGGLVQAGGSLRLSCAASGFTFYPYAMGWYRQAPGKERELVARITWSGGSTSYADSVKGRFTISRDNAKNTVYLQMNSLKPEDTAVYYCSKAYHHSEFDYWGLGTQVTVSS	high polyreactivity
QVQLVESGGGLVQAGGSLRLSCAASGFTFYHNALGWYRQAPGKERELVATITARGGRTYYADSVKGRFTISRDNAKNTVYLQMNSLKPEDTAVYYCNVKASRGYTYEYDYWGQGTQVTVSS	high polyreactivity
QVQLVESGGGLVQAGGSLRLSCAASGIAYTYNAMGWYRQAPGKERELVASISRTGGSTRYADSVKGRFTISRDNAKNTFYLQMNSLKPEDTAVYYCAALSWRYVKYRFDYWGQGTQVTVSS	high polyreactivity
QVQLVESGGGLVQAGGSLRLSCAASGRTFYSYARGWYRQAPGKERELVAAINSGGDTYYADSVKGRFTISRDNAKNTVYLQMNSLKPEDTAVDYCAADIEVQYITLGVELPYDYWGQGTQVTVSS	low polyreactivity
QVQIEESVGDLVQAGGSLRLICAASGRTFPVYDMGWYRQAPGKERELVAAISRRAVRTYYADSVKGRFTISRDIAKNTVYLQMNSLKPEDTAVYYCNAVLRKITYDYWGQGTQVTVSS	high polyreactivity
QVQLVESGGGLVQAGGSLRLSCAASGSIFSSNAMGWYRQAPGKERELVAAITRGGRTTYADSVKGRFTISRDNAKNTVYLQMNSLKPEDTAVYYCAALHGRYPNRYDYWGQGTQVTVSS	low polyreactivity
EVQLVESVGGLVHAGGSLGLSFAASGSIFDRNAMGWYRQAPGKERELVAAISVSGGSTYYADSVKGRFTISRDNAKNTVYLQMNSLKPEDTAVYYCDKAGRYANLPYGYWGHGTQVTVSS	high polyreactivity
QVQLVESGGGLVQAGGSLRLSCAVSGFNFPYYAMGWYRQAPGKERELVAAINQRGGSTYYADSVKGRFTISRDNAKNTVYLQMNSLKPEDTAVYYCAADRHSKTYYYSYGYWGQGTQVTVSS	high polyreactivity
QVQLVESGGGLVQAGGSLRLSCAASGSTFLTYAMGWYRQAPGKERELVASISRSGSTNYADSVKGRFTISRDNAKNTVYLQLNSLKPEDTAVYYCAADHTRYSSSWYYKQYYYWGQGTQVTVSS	low polyreactivity
QVQLVESGGGLVQAGGSLRLSCAASGSIFSTYAMGWYRQAPGTERELVAAITWSGGSTYYADSVKGRFTISRDNAKNTVYFQMNSLKPEDTAVYYCATRGQGWGGKYGYWGQGTQVTVSS	low polyreactivity
